Reference: US20230272073A1 (AVA LIFESCIENCE, published 2023)

Target: T1, soluble recombinant version of the IGLV3-21^R110-harboring B-cell receptor, produced as monomeric human IgM (human)
T1 construct: 170.5 kDa, made by transient expression in 293-HEK cells; It was the analyte in solution in BLI; also called soluble IGLV3-21^R110 B-cell receptor; soluble BCR-fragment
Test: BLI (Octet)
Method: Kinetic assays were performed by first immobilizing the anti IGLV3-21^R110 antibodies onto biosensors through an indirect capturing reagent, anti-human IgG Fc antibody. Anti IGLV3-21^R110 antibodies were loaded at a concentration of 0.01875 μg/ml to generate an anti IGLV3-21^R110 antibody capture level of between 0.30 and 0.34 nm. […] The anti IGLV3-21^R110 antibody capture biosensors were then submerged in wells containing the different concentrations of the soluble BCR-fragment for 900 seconds (association stage) followed by a dissociation step of 1200 seconds in running buffer. Steps were performed at a constant shake speed of 1000 rpm. All reagents were used as described by the manufacturer. Sensorgrams were generated after double reference correction (buffer and blank sensors) to compensate for both the natural dissociation of the capture anti IGLV3-21^R110 antibody and also non-specific binding of the soluble BCR-fragment to the sensor surface. […] (KD) were calculated based on the ratio of association (kₐ) and dissociation rate (kd) constants, obtained by fitting sensorgrams with a first order 1:1 binding model using the Fortebio Data Analysis software (Satorius).
For the KD values of all humanized antibodies, see Table 3.

T1 sequence (heavy, as listed by the source limits assumed, chain 1 of 2): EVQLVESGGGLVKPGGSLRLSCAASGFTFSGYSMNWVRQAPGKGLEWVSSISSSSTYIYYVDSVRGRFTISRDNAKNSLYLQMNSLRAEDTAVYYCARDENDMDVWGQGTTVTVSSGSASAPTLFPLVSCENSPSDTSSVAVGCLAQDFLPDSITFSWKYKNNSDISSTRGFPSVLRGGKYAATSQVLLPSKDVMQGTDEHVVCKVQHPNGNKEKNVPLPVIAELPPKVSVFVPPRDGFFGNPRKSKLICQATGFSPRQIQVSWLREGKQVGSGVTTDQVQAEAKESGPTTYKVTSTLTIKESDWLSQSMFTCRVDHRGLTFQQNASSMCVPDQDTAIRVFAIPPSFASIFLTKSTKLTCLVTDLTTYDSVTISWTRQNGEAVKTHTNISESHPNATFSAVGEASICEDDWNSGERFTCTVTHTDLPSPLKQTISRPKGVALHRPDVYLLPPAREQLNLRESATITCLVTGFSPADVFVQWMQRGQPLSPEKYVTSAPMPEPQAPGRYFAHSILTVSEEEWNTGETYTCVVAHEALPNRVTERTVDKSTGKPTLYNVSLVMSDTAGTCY
T1 sequence (light, as listed by the source limits assumed, chain 2 of 2): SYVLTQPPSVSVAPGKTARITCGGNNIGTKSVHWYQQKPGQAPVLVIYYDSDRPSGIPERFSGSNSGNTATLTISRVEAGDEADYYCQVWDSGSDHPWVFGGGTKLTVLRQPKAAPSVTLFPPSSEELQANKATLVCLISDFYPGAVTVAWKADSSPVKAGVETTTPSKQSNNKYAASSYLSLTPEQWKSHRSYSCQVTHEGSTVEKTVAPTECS

B1: HC7-LC6 (antibody, human IgG1, kappa, V domains shown)
VH: QVQLQESGPGLVKPSETLSLTCTVSGFSLTSYGIHWIRQSPGRGLEWIGVIWRGGGTDSNAAFMSRITISRDTSKTQVSLKLGSVTAADTAIYYCARSRYDEEESMNYWGQGTSVTVSS
VL: EIVLTQSPSSLSASVGDSVTITCRASGNIHSYLAWYQQKPGKAPKLLIYNAKTLADGVPSRFSGSGSGTQYTLTISSLQPEDFATYYCQHFWNTPPTFGAGTKLELKR
notes: Humanized antibody, human IgG1 / kappa
Q: How did the “fold of dissociation constant relative to chimeric antibody HC0-LC0” value turn out when B1 was run?
A: ≤ 2 fold
